Paper PMC9750158
pKd: −log10 of the molar value.

Experiments:
GST-Rac1^QP = GST-Rac1^QP (UniProt P63000); experiment: pull-down
GST-Arf1 (Arf1^∆N17) = GST-Arf1 (Arf1^∆N17) (UniProt P84077); experiment: pull-down

Row | pKd (GST-Rac1^QP) | pKd (GST-Arf1 (Arf1^∆N17)) | Substance
1 | 5.70 |  | WRC with Sra1^Y967A (D site disrupted) (from UniProt Q7L576;Q9Y2A7;Q92558;Q9NYB9;Q8WUW1) (complex)
2 |  | 5.27 | ∆WRC230^D-Rac1 (Rac1 tethered to the C terminus of Sra1) (from UniProt Q7L576;Q9Y2A7;Q92558;Q9NYB9;Q8WUW1) (complex)
